Laboratory results reported in doi:10.1101/2025.08.13.670075.

Target: proteasome with HTBH-tagged 20S subunit PSMB2 (human (expressed in HEK293) | human (endogenous in HEK293T)) (UniProt P49721)
Assay: affinity purification with mass spectrometry

Sequence of UniProt P49721 (P49721 whole entry, looked up, tested part not stated): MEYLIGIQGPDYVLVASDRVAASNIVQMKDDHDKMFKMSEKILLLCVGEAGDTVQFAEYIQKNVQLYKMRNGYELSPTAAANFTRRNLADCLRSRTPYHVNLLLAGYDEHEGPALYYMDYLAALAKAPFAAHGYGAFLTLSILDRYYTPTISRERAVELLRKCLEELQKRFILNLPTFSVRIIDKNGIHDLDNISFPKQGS

B1: USP15 (endogenous, HEK293T or HeLa cells) (enzyme)
chain: MAEGGAADLDTQRSDIATLLKTSLRKGDTWYLVDSRWFKQWKKYVGFDSWDKYQMGDQNVYPGPIDNSGLLKDGDAQSLKEHLIDELDYILLPTEGWNKLVSWYTLMEGQEPIARKVVEQGMFVKHCKVEVYLTELKLCENGNMNNVVTRRFSKADTIDTIEKEIRKIFSIPDEKETRLWNKYMSNTFEPLNKPDSTIQDAGLYQGQVLVIEQKNEDGTWPRGPSTPKSPGASNFSTLPKISPSSLSNNYNNMNNRNVKNSNYCLPSYTAYKNYDYSEPGRNNEQPGLCGLSNLGNTCFMNSAIQCLSNTPPLTEYFLNDKYQEELNFDNPLGMRGEIAKSYAELIKQMWSGKFSYVTPRAFKTQVGRFAPQFSGYQQQDCQELLAFLLDGLHEDLNRIRKKPYIQLKDADGRPDKVVAEEAWENHLKRNDSIIVDIFHGLFKSTLVCPECAKISVTFDPFCYLTLPLPMKKERTLEVYLVRMDPLTKPMQYKVVVPKIGNILDLCTALSALSGIPADKMIVTDIYNHRFHRIFAMDENLSSIMERDDIYVFEININRTEDTEHVIIPVCLREKFRHSSYTHHTGSSLFGQPFLMAVPRNNTEDKLYNLLLLRMCRYVKISTETEETEGSLHCCKDQNINGNGPNGIHEEGSPSEMETDEPDDESSQDQELPSENENSQSEDSVGGDNDSENGLCTEDTCKGQLTGHKKRLFTFQFNNLGNTDINYIKDDTRHIRFDDRQLRLDERSFLALDWDPDLKKRYFDENAAEDFEKHESVEYKPPKKPFVKLKDCIELFTTKEKLGAEDPWYCPNCKEHQQATKKLDLWSLPPVLVVHLKRFSYSRYMRDKLDTLVDFPINDLDMSEFLINPNAGPCRYNLIAVSNHYGGMGGGHYTAFAKNKDDGKWYYFDDSSVSTASEDQIVSKAAYVLFYQRQDTFSGTGFFPLDRETKGASAATGIPLESDEDSNDNDNDIENENCMHTN
With B1 the fold change of USP15 content on proteasomes, MG132-treated over untreated cells was > 4 fold.
